Experiment: In vitro drug permeation studies across caco-2 monolayer on Transwell inserts
Type: in vitro ADME, Human
Settings: PEGDMA 15% Texas red-BSA, 30% FITC-BSA, 45% DNP-BSA reservoirs of same device; FIG. 6
Method: In vitro drug permeation studies. The drug loaded microdevices were released within 2 min from the wafers using 8 M potassium hydroxide (KOH) solution that was preheated to 40° C. The released microdevices being less dense than water was ultracentrifuged (30 kDa Amicon ultra centrifugal filters) and washed with PBS twice for release and permeation studies. Human colorectal adenocarcinoma epithelial cells (caco-2 ATCC) were grown to confluency (transepithelial electrical resistance plateau at 900-1000Ω) on 50% collagen-ethanol (Type 1, Becton Dickinson, Franklin Lakes, N.J.) treated 24-well Transwell® inserts. The caco-2 cells were maintained in Modified Eagle's Media (MEM) with 20% fetal bovine serum (Invitrogen), 2 mM L-glutamine, 1.5 g/L sodium bicarbonate, 2.5 g/L glucose, 10 mM HEPES buffer, 1.0 mM sodium pyruvate, and 1 mg/mL penicillin/streptomycin for 5 days or more prior to seeding. […] Discrete time (20 min) samples were taken from both the upper and lower chamber of the Transwell® for the different drug loaded systems and observed for fluorescence using a Packard Fluorocount Microplate Fluorometer (Meriden, Conn.).
To measure the drug elution kinetics of the various microdevices, release of the different fluorophore tagged BSAs were monitored, in vitro, from hydrogel laden microdevices. […]

FITC-BSA: fluorescently labeled bovine serum albumin, model fluorophore-drug
relative release rate at different crosslinking ratio: released faster than DNP-BSA

Texas red-BSA: fluorescently labeled bovine serum albumin, model fluorophore-drug
relative release rate at different crosslinking ratio: released faster than FITC-BSA
